Reference: publication PMC9755798, “Transcription factor CsESE3 positively modulates both jasmonic acid and wax biosynthesis in citrus”

Columns and labels:
[1] = biological target: T1, CsESE3 (Citrus sinensis? ('Newhall' navel …, UniProt A0ACB8NL77 1-192)); assay: EMSA; EMSA as in Gong et al. 2021b; buffer, salt, pH and temperature not given; 5' FAM probes, 100 uM unlabeled competitor stocks, 7x/14x/28x excess; details: protein: recombinant; tags: N-terminal His (pETDuet); label: 5' FAM (top strand); blunt
T1 sequence (A0ACB8NL77 entry or part of it): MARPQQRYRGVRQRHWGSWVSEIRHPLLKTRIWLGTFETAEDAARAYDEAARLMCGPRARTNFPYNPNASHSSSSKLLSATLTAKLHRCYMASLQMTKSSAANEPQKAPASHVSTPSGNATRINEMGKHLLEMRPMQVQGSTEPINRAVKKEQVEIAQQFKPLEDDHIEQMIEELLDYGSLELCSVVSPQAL

[2] = biological target: T1, CsESE3; assay: EMSA; shift attenuated by excess (up to 28x) cold probe; EMSA as in Gong et al. 2021b; buffer, salt, pH and temperature not given; 5' FAM probes, 100 uM unlabeled competitor stocks, 7x/14x/28x excess; details: protein: recombinant; tags: N-terminal His (pETDuet); label: 5' FAM (top strand); blunt

Binder	binding result [1]	binding result [2]
Probe_PLIP_Like (CsPLIP_Like promoter GCC-box) (dsDNA) DNA 1: AAATAAACTAAGCCGCCTTGTCATATT DNA 2: AATATGACAAGGCGGCTTAGTTTATTT	binds	
Probe_PLIP (CsPLIP1 promoter GCC-box) (dsDNA) DNA 1: GAGCCTCACTAGCCGCCATTGTCCCCG DNA 2: CGGGGACAATGGCGGCTAGTGAGGCTC		binds
